We go through 116 sequences from the supplement of paper PMC10724198.

± gives the standard deviation of the averaged measurements.
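Also: PSI is a weighted mean of sequencing reads over stability bins, variants kept only with over 10 reads, mCherry proximal and sfGFP distal, peptide attached via GGGS linker.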

In the data set the test system is Saccharomyces cerevisiae. The data set can be described thus: protein stability index of tFT-peptide fusion (C-terminal peptide) (PSI (0-1 scale)); higher = more stable (slower turnover). The following applies: genetic background: wild type; temperature: 30 C.
Consider KKKKEIKKKKKT, for which the protein stability index came to 0.697 ± 0.06.
Sequence KKKKHKAKGKIG gave a protein stability index of 0.695 ± 0.049.
Then KKKKKKDQKNKK, with 0.734 ± 0.057; and KKKKKKKGIILD, with 0.737 ± 0.097.
Then KKKKKKKKKPEK, with 0.708 ± 0.022; and KKKKKKKKRARY, with 0.657 ± 0.0063.
For the sequence KKKKKKKNKKRK, the protein stability index stood at 0.683 ± 0.019.
Then KKKKKKKNRETK, with 0.655 ± 0.042; and KKKKKKKTKKKK, with 0.78 ± 0.034; and KKKKKKQEKNKK, with 0.694 ± 0.042.
Then KKKKKKRQKNTK, with 0.691 ± 0.03.
Then KKKKKSKIEKKD, with 0.725 ± 0.077.
For KKKKKSKKKTKT, the protein stability index came to 0.668 ± 0.0037.
Then KKKKKSKKQKKK, with 0.733 ± 0.019; and KKKKKTKNIKKT, with 0.794 ± 0.059; and KKKKQKIKKQRK, with 0.63 ± 0.00095.
KKKKQKKKRKRE gave a protein stability index of 0.718 ± 0.028.
KKKKRKNNITKK registered a protein stability index of 0.74 ± 0.15.
Then KKKKTEKKKTKQ, with 0.656 ± 0.035; and KKKKVKKQRISR, with 0.713 ± 0.11; and KKKMINEKKKKD, with 0.701 ± 0.025.
The value for KKKNKNENKKPQ was 0.667 ± 0.021; that for KKKNTRKTTNIK was 0.708 ± 0.026; that for KKKQKKVSNKQT was 0.699 ± 0.044.
Sequence KKKRIRNEYKKR had a protein stability index of 0.68 ± 0.0071.
Then KKKTSKVIIREG, with 0.689 ± 0.0085; and KKKVAITPQQTR, with 0.685 ± 0.23; and KKMKKASTAKEL, with 0.678 ± 0.025.
Then KKNAHANKIGND, with 0.639 ± 0.086; and KKNEKKNRKKKN, with 0.71 ± 0.022.
The value for KKNKKNQKKKNK was 0.663 ± 0.0072.
KKNKLKDSIKNI registered a protein stability index of 0.663 ± 0.016.
Then KKNKRMKVREKK, with 0.609 ± 0.034; and KKNLKTKKRQNI, with 0.66 ± 0.01.
Then KKNNKKNNKKKQ, with 0.678 ± 0.078; and KKNQKKNEKHIK, with 0.689 ± 0.041; and KKQKKKKKRNRK, with 0.654 ± 0.028.
Then KKRKKKEKKRKK, with 0.773 ± 0.17.
KKRRTKKENNNI yielded a protein stability index of 0.687 ± 0.0089.
Then KKSRLRNNPADC, with 0.7 ± 0.031.
The value for KKTKNKKRIIRT was 0.724 ± 0.051; that for KKTLWRKITMQK was 0.7193 ± 0.0057.
Then KKTYQQKIEEVV, with 0.782 ± 0.14.
In turn, KKVKMIKEIRRG registered a protein stability index of 0.745 ± 0.044.
The value for KKVLKFTKKKKP was 0.599 ± 0.048.
Then KLGNVRGPSYSL, with 0.709 ± 0.056; and KLGRIWNFTLSA, with 0.6284 ± 0.001; and KLKKKKISNVEN, with 0.612 ± 0.0081.
Then KLNMLLYNNQEK, with 0.631 ± 0.039.
With KLREYGGLPISC, the protein stability index came to 0.677 ± 0.0087.
The value for KMKRSNADAVEP was 0.678 ± 0.03; that for KNAAGERGGKEG was 0.644 ± 0.044.
Consider KNCKEQRKTIQI, for which the protein stability index is 0.713 ± 0.026.
Sequence KNDRKLIKRILK registered a protein stability index of 0.728 ± 0.093.
The value for KNEKNERKIATQ was 0.682 ± 0.016.
In the case of KNESIRKKKPKK, the protein stability index was 0.734 ± 0.033.
Then KNGANREEYITK, with 0.686 ± 0.028.
Then KNIERKKNTKIR, with 0.714 ± 0.017.
Then KNIRKITHGIGN, with 0.623 ± 0.072.
Sequence KNKKKKKRRTRK displayed a protein stability index of 0.732 ± 0.067.
Then KNQLKKPINKSK, with 0.734 ± 0.13; and KNRKSPSMNSKE, with 0.716 ± 0.017; and KNTKKKNRKKKN, with 0.7419 ± 0.0026.
Sequence KNTNQKKKKKNT had a protein stability index of 0.718 ± 0.044.
Then KNVKETERKVTS, with 0.565 ± 0.023; and KPKKKKKDEQTI, with 0.672 ± 0.035; and KPPNRQCLYDAL, with 0.721 ± 0.094.
With KPVGLPGRIRLG, the protein stability index was 0.751 ± 0.02.
The value for KQKKKRKSRRKK was 0.6504 ± 0.0033.
On to KQKKTQKIYTMR, for which the protein stability index was 0.728 ± 0.059.
KQKNKTNKKNTK had a protein stability index of 0.661 ± 0.025.
Then KQLEKRKRIIEE, with 0.7644 ± 0.0035.
The value for KQLPVLSAEVLS was 0.648 ± 0.035.
KQNAHKKINKYE yielded a protein stability index of 0.75 ± 0.02.
KQSNGEFNIATP returned a protein stability index of 0.648 ± 0.046.
The value for KQTEKEPKKGES was 0.7123 ± 0.0028.
Then KRCHPVYVRGGG, with 0.568 ± 0.013; and KRDFILFSASVD, with 0.627 ± 0.051.
The value for KRDVRRLYRKRV was 0.7052 ± 0.0068.
In the case of KRGKKNEESRRD, the protein stability index came to 0.68 ± 0.085.
The value for KRIVGIFINRKI was 0.586 ± 0.0096; that for KRKEKKKEKRRK was 0.714 ± 0.022; that for KRKKKKEQTKKK was 0.752 ± 0.11.
The value for KRKKKRQKNKGK was 0.766 ± 0.13; that for KRKKQERKREKK was 0.692 ± 0.05.
Then KRKKQKKNQQNR, with 0.682 ± 0.019.
Turning to KRKRKKKSEKEE, the protein stability index is 0.652 ± 0.025.
For KRLKRKSNLERE, the protein stability index is 0.69 ± 0.047.
Then KRMKNELDIGMK, with 0.7049 ± 0.0032; and KRNIKKKKTNLR, with 0.675 ± 0.087.
Then KRNKDFIYTYRL, with 0.696 ± 0.013; and KRQWAGRDGEGR, with 0.662 ± 0.0068; and KRRGECEGGRRG, with 0.672 ± 0.044.
The value for KRRKKTQESSKA was 0.726 ± 0.049; that for KRSNKGAKKKGK was 0.672 ± 0.041.
Take KRTEHTHDRKIK: the protein stability index amounted to 0.721 ± 0.034.
The value for KSILTRTVNSNQ was 0.6592 ± 0.0031.
Then KSKKDQKKNHKK, with 0.712 ± 0.0076.
The value for KSNRCVQSKRQQ was 0.686 ± 0.037.
Regarding KTERRKEENTGE, the protein stability index worked out at 0.665 ± 0.041.
The value for KTGIQTEIRYKE was 0.63727 ± 0.00029; that for KTHKKRYRKGNT was 0.725 ± 0.12; that for KTKKENGRGEKN was 0.697 ± 0.04.
Then KTKKIWKKKSNI, with 0.713 ± 0.011; and KTKRMKSIKKSK, with 0.7099 ± 0.0046.
The value for KTNLSNRKKHKG was 0.653 ± 0.051; that for KTRTGMWDEQGV was 0.701 ± 0.016; that for KTTSRIKEIIQK was 0.606 ± 0.017.
The sequence KVEQLPAREAPC displayed a protein stability index of 0.6556 ± 0.0039.
The value for KVFHTDSNPNNK was 0.663 ± 0.016; that for KVGKRQGFSVYV was 0.684 ± 0.022; that for KVLRKQRLKGRE was 0.5238 ± 0.0015.
The value for KVMSLACRLTSE was 0.843 ± 0.11; that for KVPNEIKRYVFI was 0.66446 ± 8.8e-05; that for KYIGHSENATSK was 0.71 ± 0.067.
Then KYKVGLWHRVAK, with 0.68 ± 0.16.
